In the supplement of paper PMC9170038:

Columns and labels:
MS2 coat protein = assay: apparent KD of MS2 coat protein; higher = weaker reporter binding; conditions: Eterna round: R107
Procedure: (§1)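 RNA-MaP round R107: designed RNA switches with theophylline, tryptophan, arginine or FMN aptamers are transcribed on-chip within common flanks. They are titrated with SNAP-549-labelled MS2 coat protein in RNA-MaP buffer (100 mM Tris pH 7.5, 80 mM KCl, 4 mM MgCl2), without ligand or with the indicated ligand. Median apparent KD per design.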

[1] = system: K4 kissing-loop RNA reporter; assay: apparent KD of K4 kissing-loop reporter; higher = weaker reporter binding; conditions: Eterna round: R107;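 note: bound reporter read as fluorescence of individual clusters on recovered sequencing chips by microscopy, with normalized cluster intensities fitted with a binding model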
Procedure: as §1, with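 “a labelled K4 kissing-loop RNA reporter” for “SNAP-549-labelled MS2 coat protein”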

[2] = input ligand: theophylline 20 uM
[3] = input ligand: theophylline 2 mM
[4] = input ligand: tryptophan 2.4 mM

Sequence | apparent KD of MS2 coat protein (MS2 coat protein; input ligand: arginine 13.2 mM) [nM] | apparent KD of MS2 coat protein (MS2 coat protein; input ligand: none) [nM] | apparent KD of MS2 coat protein (MS2 coat protein; [2]) [nM] | apparent KD of MS2 coat protein (MS2 coat protein; [3]) [nM] | apparent KD of MS2 coat protein (MS2 coat protein; [4]) [nM] | apparent KD of K4 kissing-loop reporter ([1]; input ligand: FMN 200 uM) [nM] | apparent KD of K4 kissing-loop reporter ([1]; input ligand: arginine 13.2 mM) [nM] | apparent KD of K4 kissing-loop reporter ([1]; input ligand: none) [nM] | apparent KD of K4 kissing-loop reporter [1, 2] [nM] | apparent KD of K4 kissing-loop reporter [1, 4] [nM]
AUGCAUAGCGGAAGGAGCGCAAUAGAAUGACAUGAGGAUCACCCAUGUAUGUGAUGUGGGUUGCAGGUAGGUCGCCGAGUGGUAU [Exclusion - Arginine B (Freestyle 1)] | 70.7 | 60.5 | 98.8 | 62.6 | 55 | – | – | – | – | –
ACAUGAGGAUCACCCAUGUAUGACUAUCCUCGAGGACCGGUACGGCCGCCACUCGAACGAGUGGCUCGCGAGUGCGCACUCGCGG [5'end-1] | 12.4 | 11.4 | 15.6 | 12.9 | 11.6 | – | – | – | – | –
UUUUUCGCGGGCGAUACCAGCUUGAUCGUACUGGCCUGGUACAUGAGGAUCACCCAUGUAAGCCCUUGGCAGCGCGCGGGAGAAG [Exclusion - Theophylline B Attempt #1 (HarryS)] | 11.5 | 12.7 | 14.6 | 20.2 | 15.2 | – | – | – | – | –
GUAUGGAAACAUACUAGGGUAUCAUGAGAUACCAGUACAGAAAUGUACCCUUGGCAGCUCUAGCAUACAUGAGGAUCACCCAUGU [Ex Theophylline A 6] | 15.4 | – | 20 | – | 12 | – | – | – | – | –
GGAUAGGACAGAAGGAGCGUGAGAUGCAUACCUUCAUUCCUCACAUGAGGAUCACCCAUGUCACAGGUAGGUCGCUGUCCUAUCG [#20 Exclusion - Arginine B] | 64.8 | 93.5 | 108 | 96.5 | 90.7 | – | – | – | – | –
UCGCUCGCCGUAAGGCGAGCGAGUUGCGAUACCAGCCCGGAAACGGGCCCUUGGCAGCGCACAUGAGGAUCACCCAUGUCAUGUU [#1 Exclusion - Theophylline A Attempt #5 (HarryS)] | 18.3 | 19.5 | 35.1 | 24.3 | 19.7 | – | – | – | – | –
GAAAAUCCCGUACAUGAGGAUCACCCAUGUCGAGGACCGGUACGGCCGCCACUCGCACGCAUUGCAUUGGAGGGUCAGGUACGAG [Erenerrati] | 26.9 | 28.5 | 34.7 | 29.2 | 75.5 | – | – | – | – | –
AGUACACGAACUGAUACCAGCCGGACAUGAGGAUCACCCAUGUCCUACCUCUGUUCGGUUGGCCCUUGGCAGCAGUUCGUGUACA [Omei Theo B SS A v9] | 40.5 | – | 391 | – | 76.2 | – | – | – | – | –
CGCAACAUGAGGAUCACCCAUGUAAUGACGCGAGGACCGGUACGGCCGCCACUCGCCUGCCAAUGAGCGCAUGCGGCCUGGGUAU [Exclusion Tryp A GF7] | 11.9 | – | 16.1 | 13.5 | – | – | – | – | – | –
UUACAUGAGGAUCACCCAUGUCAUACAGAAGGAGCGUCACAUAAGACAGGUAGGUCGCUGUUAUUUAAUACUAUUAUAUCCUCUA [JR_Nu_ExcArginiA_Sub027] | 26.9 | 33.7 | 44.9 | 35.2 | 32.8 | – | – | – | – | –
UCUUUUUUCUUUUCUUCUUUCGGUUCUUUUCGAGGACCGGUACGGCCGCCACUCGAAACAUGAGGAUCACCCAUGUUUUGGUUUU [Trypto a] | 15.9 | – | 17.6 | 13.7 | – | – | – | – | – | –
UGGGUCGGAUGAGUAAAUUGUCCGACGUAUCGAGGACCGGUACGGCCGCCACUCGGUUGUACAUGAGGAUCACCCAUGUCAGGGU [#1 Same State - Tryptophan A Attempt #16 (HarryS)] | 40.5 | 436 | 351 | 536 | 206 | – | – | – | – | –
GGUGGGACUUGUGAUACCAGCCUAAUUCGAAUCGAAUUGCACAUGAGGAUCACCCAUGUCGGCCCUUGGCAGCAUGAGUAUUUAU [Aagexe] | 104 | – | 129 | – | 255 | – | – | – | – | –
UUGUUUCCGACGGCCGCCACUGGUUUCUUUGUUGUAGUGAUGUUGCGGUGGAAUGAUAGCGUUAACAGGACCGGGUCGGUGAGAC [theeternabot_sameState_KL_Trp_B_42] | – | – | – | – | – | 1280 | 547 | 774 | 580 | 451
AACAGCAAUGCGGCCGCCACUUCGAGGUCAGUGAUGUUGACAGAAUUAAAUAAAGAUCCCAAGAGGAGGACCGGGCAGUGCUGUU [whbob_SS_Tryp_B_t24] | – | – | – | – | – | 534 | 417 | 674 | 527 | 416
AAAUAAAGGGCGGCCGCCACUGAUCGCCUCCGCGUGGGUAUGUAGUGAUGUUAUAUGGCCGCCAUCAGGACCGGGCCAAAUAAAA [#10 K4 Tryptophan B Same State] | – | – | – | – | – | 214 | 187 | 340 | 272 | 193

Sequence | apparent KD of MS2 coat protein (MS2 coat protein; input ligand: arginine 13.2 mM) [nM] | apparent KD of MS2 coat protein (MS2 coat protein; input ligand: none) [nM] | apparent KD of MS2 coat protein (MS2 coat protein; [2]) [nM] | apparent KD of MS2 coat protein (MS2 coat protein; [3]) [nM] | apparent KD of MS2 coat protein (MS2 coat protein; [4]) [nM] | apparent KD of K4 kissing-loop reporter ([1]; input ligand: FMN 200 uM) [nM] | apparent KD of K4 kissing-loop reporter ([1]; input ligand: arginine 13.2 mM) [nM] | apparent KD of K4 kissing-loop reporter ([1]; input ligand: none) [nM] | apparent KD of K4 kissing-loop reporter [1, 2] [nM] | apparent KD of K4 kissing-loop reporter [1, 4] [nM]
GCAGUGAUGUUGCGGAUGUACAGUGGAGUGCGAGGACCGGUACGGCCGCCACUCGUACAGAACAAGCUAAUACAUCGAUAGGUGA [XI] | – | – | – | – | – | 323 | 358 | 461 | 409 | 339
UGUCGUUCUAGUGAUGUUAGGACAGUUAUGAAGGAUAUACACACUCGUAGAAGGUCAGCUGCGGAAUGGCGAUUACGGUGAUUCG [theeternabot_sameState_KL_FMN_A_39] | – | – | – | – | – | 157 | 107 | 128 | 132 | 136
UUCUAGCCGAAAGGCUAGUCGGCUUCAGAUACCAGUCGCGAAAGCGACCCUUGGCAGCUGUGUAGUGAUGUUGCAAAGAAAGCCG | – | – | – | – | – | 556 | 435 | 618 | 262 | 524
CCUAUCUCAUACGAUACCAGUCAAUGAGAUUUUAUCAAUGCCAUCACCGAGUGAUGUUCGGACCCUUGGCAGCGUAUGGGAUAGG [#02 K4 Theophylline B Exclusion] | – | – | – | – | – | 236 | 185 | 217 | 298 | 221
UGUCAUUGGUCUGAUACCAGUUGAUAAACUGGAGUGAUGUUCCAAGACGAGAAACUCGACAACCCUUGGCAGCAGACCGAUGACU [TheoBS 16 #SwitchBubble 13 #StaticStem] | – | – | – | – | – | 440 | 295 | 374 | 772 | 430
GGGAGUAGUGCGGCCGCCACUGAGAAAGAAGAAGAUUGUAGUGAUGUUAUGGAGGAAAGGAAGAACAGGACCGGGCAUUAGAUUU [SSTRyptB.I] | – | – | – | – | – | 1080 | 735 | 231 | 651 | 684
UACUAGUGAAACUAGUAGGUGCUAGGUGAAGGAGCGAUCGAAAGAUCAGGUAGGUCGCACCUUCCUGAGUGAUGUUCAGGUAAUA [KL-SSArg-A3] | – | – | – | – | – | 47.2 | 29.6 | 44.5 | 59.1 | 40.9
GGAUAGGACACAGGAUAUGGUAGUGAUGUUACCAAACUGGUUAAACAUGUCAGAAAACUGGCAUGACCAGAAGGGUGUCCUAUCG [FmnBX 27 C11+G75] | – | – | – | – | – | 83.4 | 63.8 | 66.2 | 71 | 63.8
CAGAACAUAUAUAGAAACUAUAUAUGAGAUACCAGUCAAAUUAAAGACCCUUGGCAGCUCAGGCGAGUGAUGUUCGCAGGCUAAC [Astros-Gfrank-modulation#2] | – | – | – | – | – | 95.9 | 109 | 102 | 122 | 88.3
UUCAGUGAUGUUGAACACUGUUGUAUAAACUAGGAUAUGCUGAUAAGCAGAAGGAGUGAUGUUCCGUUCAACAUCAGAAUUAAAU [#08 K4 FMN A Exclusion] | – | – | – | – | – | 662 | 415 | 488 | 496 | 269
GCAGUGAUGUUGCGCGGGUACGGUGGAGUGCGAGGACCGGUACGGCCGCCACUCGUACGGAACUGGCUAAUAUAUGGAUAGGUGA [VI] | – | – | – | – | – | 397 | 291 | 383 | 379 | 336
AGGAGCGUGCGAUGUAAAUCGCACGCUCCACGAGGACCGGUACGGCCGCCACUCGCUCGUGCAGAGUGAUGUUCUGCCGGCGAAU [#2 Same State - Tryptophan A Attempt #24 (HarryS)] | – | – | – | – | – | 306 | 202 | 270 | 248 | 260
UGUGCUGUGUACUGUAAUGUUAUGCGGGAUACCAGAGUCUUUUUAUUCCCUUGGCAGCUUGAGUGAUGUUUGAUGCUGUUCUUGU [kiokmullin] | – | – | – | – | – | 362 | 301 | 370 | 331 | 314
UGACUGGACUGAAGGAGCGCUGAAGGAGCGUAAGUAGUGAUGUUGCUUACAGGUAGGUCGCAGCAGGUAGGUCGCAGUCUAGUCU | – | – | – | – | – | 45.3 | 37.1 | 56.6 | 44.3 | 43.7
AACUGCCAAGGAACAUUGUAAGAAGGUGAUACCAGCAUCGAAAGAUGCCCUUGGCAGCACCAACUUGCAGUGAUGUUGCAAGUAA [Design5] | – | – | – | – | – | 183 | 156 | 165 | 180 | 159
